Laboratory results reported in article PMC2791859.

What was measured:
[1] = molecular target: FcγRIa, recombinant extracellular domain (UniProt P12314); experiment: SPR; Biacore 3000; extracellular domain of FcγRIa immobilized covalently or through enzymatic, site-directed biotinylation; antibody as analyte; kinetic analysis at pH 7.4
[2] = molecular target: FcRn, recombinant extracellular domain (UniProt P55899); experiment: SPR; Biacore 3000; extracellular domain of FcRn immobilized covalently or through enzymatic, site-directed biotinylation; antibody as analyte; steady-state analysis at pH 6.0
Chain of UniProt P55899 (P55899 whole entry, looked up, the tested form may be a part): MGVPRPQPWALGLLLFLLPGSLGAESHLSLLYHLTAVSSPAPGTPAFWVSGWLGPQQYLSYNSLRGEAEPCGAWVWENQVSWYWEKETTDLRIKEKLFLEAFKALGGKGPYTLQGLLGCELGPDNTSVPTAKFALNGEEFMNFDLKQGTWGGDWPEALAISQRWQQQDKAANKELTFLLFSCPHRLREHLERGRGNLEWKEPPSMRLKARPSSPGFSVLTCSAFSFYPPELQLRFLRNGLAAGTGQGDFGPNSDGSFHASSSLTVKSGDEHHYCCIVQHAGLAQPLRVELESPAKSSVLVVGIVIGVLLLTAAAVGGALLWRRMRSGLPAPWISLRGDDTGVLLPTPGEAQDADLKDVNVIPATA

Chain of UniProt P12314 (P12314 16-292): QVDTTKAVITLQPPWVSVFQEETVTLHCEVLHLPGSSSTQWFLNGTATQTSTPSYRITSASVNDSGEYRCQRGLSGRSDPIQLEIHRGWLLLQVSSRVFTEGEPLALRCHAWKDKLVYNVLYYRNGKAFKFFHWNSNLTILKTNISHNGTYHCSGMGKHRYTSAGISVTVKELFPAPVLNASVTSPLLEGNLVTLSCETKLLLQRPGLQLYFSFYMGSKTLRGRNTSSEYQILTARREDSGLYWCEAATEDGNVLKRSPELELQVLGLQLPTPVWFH

Kd [1]: 74 nM
koff [1]: 0.0021 s⁻¹
kon [1]: 29000 M⁻¹ s⁻¹
Kd [2]: 2700 nM
Substance: human IgG1 antibody Variant FS (F241S F243S)
